The data set addresses T1, ParB (Mycobacterium tuberculosis H37Rv) (UniProt P9WIJ9).
T1 sequence: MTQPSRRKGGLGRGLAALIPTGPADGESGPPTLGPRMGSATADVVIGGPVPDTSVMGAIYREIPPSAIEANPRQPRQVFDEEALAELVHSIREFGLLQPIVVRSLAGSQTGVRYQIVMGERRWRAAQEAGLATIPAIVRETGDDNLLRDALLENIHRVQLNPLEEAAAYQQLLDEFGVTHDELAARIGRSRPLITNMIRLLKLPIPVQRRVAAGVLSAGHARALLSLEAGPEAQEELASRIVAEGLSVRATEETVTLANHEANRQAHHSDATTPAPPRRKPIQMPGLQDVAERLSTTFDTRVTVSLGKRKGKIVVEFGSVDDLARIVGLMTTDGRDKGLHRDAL
As to the kind of experiment: EMSA.

In the case of “GCGAGTGGAGGGACGGCGTGAGTGCTCCGTGGGGCCCGGTGGCCGCTGGACCGTCCGCGCTCGTAAGGTCGGGCCAGGCTTCAACTATCGAACCATTCCAGCGGGAAATGACACCACCGACACCGACGCCTGAGGCCGCGCACAATCCGACGATGAATGTTTCACGTGAAACATCGACAGAATTCGACACCCCCATCGGCGCTGCAGCAGAACGTGCGATGCG (double strand) [parS probe]”, the binding entry is listed as “binds”.

(Values after PMC4373775.)
